# Test results: the nanobody polyreactivity screen of Harvey et al. (2022)
# Assay: yeast display, Sf9 membrane polyspecificity reagent, FACS + sequencing; frameworks hold sequencing errors
# Summary of the method: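 Nanobodies came from a synthetic yeast display library in Saccharomyces cerevisiae BJ5465, induced with galactose for 36–48 hours and stained for 1 hour at 4 °C with 10% biotinylated, detergent-solubilized Sf9 membrane reagent. Cells were enriched on streptavidin microbeads and then FACS-sorted, with low and high (top ~1%) gates set on anti-HA fluorescence for expression and streptavidin fluorescence for reagent binding. Each polyreactivity label reflects the gate a clone came from. Genes were amplified by colony PCR, sequenced by MiSeq 2 × 250 and filtered by CDR length.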
row,Sequence,polyreactivity (PSR sort gate)
1,QVQLVESGGGLVQEGGSLRLSCAASGRTFVSNAMGWYRQAPGKERELVAAIRYGGGRTYYADSVKGRFTISRDNAKNTVYLQMNSLKPEVTAVFYCAKRSVGGTGYYWGQGTQVTVSS,high polyreactivity
2,QVQLVESGGGLVQAGGSLRLSCAASGSTFVLYAMGWYRQAPGKERELVATITTSGARTHYADSVKGRFTISRDNAKNTVYLQINSLKPEDTAVYYCAAESYWTGYDYGGQGTQVTVSS,low polyreactivity
3,QVQLVESGGALVQAGGSLRLSCAASRSTSKNYAMGWYRQAPGKERELVAAITRGTSTNYADSVKGRFTISRDNAKNTVYFQMNSLKPEDSAVYYCNVERHRVWDYQWREEDDYWGQGTQVTVSS,low polyreactivity
4,QVQLVESGGGLVQAGGSLRLSCAASGSSKLMLWDGIDRRLGKKGSWLPLFVLVVLRNYSDSVKGRFTISRDNAKNTVYLQMNSLKPEDTAVYYCAATPIGSGGWGDYWGQGTQVTVSS,low polyreactivity
5,QVQLVESGGGLVQAGGSLRLSCAASGFTFFYNAMGRYRQAPGKEREFVAAISGRGGTTYYADSVKGRFTISRDNAKNTVYLEMNSLKPEDTAVYYCAARSVSTLRYTSCKLSDDYWGQGTQVTVSS,high polyreactivity
6,QVQLVESGGGLVQAGGSLRLSCAASGSTFRDYAMGWYRQAPGKERELVAAITYSDGGTYYADSVKGRFTISRDNAKNTVYLQMNSLKPEDTAVYYCAADYPIYSFYYSAYFIFGYWGQGSQVTVSS,low polyreactivity
7,QVHLVESGGGLVQAGGSLRLSCAASGRTFWDYAMRWYRQAPGKEREFVAAINTYGGRTYYADSVKGRFTISRDNAINTVYLQMNSLKPEDTAVYYCADRTRDRAYDSWGQGTEVTVSS,high polyreactivity
8,QVQLVESGGGLVQAGGSLRLSCAASGFIYFDYAMGWDRQAPGKERELVAGISRSGDSTYYADSVKGRFTISRDNAKNTVYLQMNSLKPEDTGVFYCAVVTYRSKAHSSRNGKYYYWGQGTHVTVSS,low polyreactivity
9,QVQLVESGGGLVQAGGSLRLSCAASGGTFSTYTMGCYRQAPGKERELVAGISGRGGSTRYADSVKGRFTISRDNAKNTVYLQMNSLKPEDTAVYYCNARKRSYWGIVFVGLYDYWGQGTQVTVSS,high polyreactivity
10,QVQLVESGGGLVQAGGSLRLSCAASGRILKWNARGWYRHAPGKERELVAAISQSGGSTYYADSVKGRFTISRDNAKNTVYLQMNSLKPEDTAVYYCAARRGSKFWGQGTQVTVSS,low polyreactivity
11,QVQLVESGGGLVQAGGSLRLSCAASGRIFWANAMGWYRQAPGKERELVAAISYSGVSTYYADSVKGRFTISRDNAKNTVYLQMNSLIPEDTAVYYCAADRYRKYYYWGQGTQVTVSS,high polyreactivity
12,QVKLVESGGGLVQAGGSLRLSCAASGLTFDHNVMGWYRPAPGKERELVAAISRSGSSTYYADSVKGRFTISRDNAKNTVYLQMNSLKPEDTAVYYCAAARSRYSYATGFDYWGQGTQVTVSS,high polyreactivity
13,QVQLVESGGGLVQAGGSLRLSCAASGRTFVVYAMGWYRQAPGKERELVAAISRGGSRTYYADSVKGRFTISRDNAKNTVYLQMNSLKPEDTAVYYCAKVIPAYPDSDYNYWGQGTQVTVSS,high polyreactivity
14,QVQLVESGGGLVQAGGSLRLSCAASGIIFAKYAMGWYRQAPGKERELVAAISRSGGSTYYADSVKGRFTISRDNAKNTVYLQMNSLKPEDTAVYYCAAAYYRDGGDFDYWGQGTQVTVSS,high polyreactivity
15,QVQLVESGGGLVQAGGSLRLICAASGFSLYRNSMGWYRQAPGTERELVAAISSSGGRTYYADSVKGRFTISRDNAKNTVYLQMNSLKPEDTAVYYCAADFYRYGPQLGYWGQGTQVTVSS,high polyreactivity
16,QVQLVESGGGLVQAGGSIRLSCAASGSIFYHNAMGWYRPAPGKERELVAAITWSGSTTYYADSVKGRFTISRDNGKNTVYLQMNSLKPEDTAVYYCNAGNRHGHYDYWGQGTQVTVSS,low polyreactivity
17,QVQLVESGGGLVQAGGSLRLSCAASGFTFYLYTMGWYRQAPGKERELVATINSDGGTNYADSVKGRFTISRDNAKNSVYLQMNSLKPEDTAVYYCNAASRRGSRKQAKYEYWGQGTQVTVSS,low polyreactivity
18,QVQLVESGGGLVQAGGSLRLSCAASGSTFPYNAMGWYRQAPGKERELVAAITSSGRTNYADSVKGRFTISRDNAKNTDYLQMNSLKPEDTAVYYCAAVRWYAHRVDYWGQGTQVTVSS,low polyreactivity
19,QVQLVESGGGLVQAGGSLRLSCAASGSTFYPYAMGGYRQAPGKERELVARITQNGGSTYYADSVKGRFKISRDNAKNPVYLQMNSLKPEDTAVYYCADRWISVLSYGKYDYCGQGTQVTVSS,high polyreactivity
20,QVQLVESGGGLVQAGGSLRLSCAASGLIFRPYAMGWYRQAPGKEREFVAAITWSTGSTYYADSVKGRFTISRDYAKNTVYLQMNSLKPEDTAVYYCAARYTVWRRDYNYWGQGTQVTVSS,high polyreactivity
21,QVQLVESGGGLVQAGGSLRLSCAASGRIFAPYAMGWYRQAPGKERELVAAIRISGDSTYYADSVKGRFTISRDNAKNTVYLQMNSLKPEDTAVYYCAAEYYILHWFGYAGYPAYNYWGQGTQVTVSS,high polyreactivity
22,QVQLVESGRGLVQAGGSLRLSCAPSGRISAQYTMGWYRQAPGKERELVAAITWSGTNTYYADSVKGRFTISRDNAKNTVYLQMNSLKPEDTAVYYCATAVYLVIFEYDYWGQGTQVTVSS,low polyreactivity

row,Sequence,polyreactivity (PSR sort gate)
1,HLQLVETVGGLDQAGGSLRLSFAASGITSYGYAKGGYSEAAANESELVASISWTGGNTYADSLKGRFTISRDNAKNSVYLQMNSLKPEDSAVYYSNAGRSWDFLYCYEYWGQGTQVTVSS,low polyreactivity
2,QVQLVESGGGLVQAGGSLRLSCAASGSTFRVNTMGWYRQAPGKERELVAAISWSTGTSTYADSVKGRFTISRDNAKNTVYLQMNSLKPEDTAVYYCAAGQPAWGVEYDSWGQGTQVTVSS,low polyreactivity
3,QVQLVESGGGLVQAGGSLRLSCAASGRTFYPYDMGWYRQAPGKERELDAAISRSGGSTYYADSVKGRFTISRDNAKNSVYLQMNSLKPEDTAVYYCAAVYYSYSFVDHYDYWGQGTQVTVSS,low polyreactivity
4,QVQLVESGGGLVQAGGSLRLSCAASGRTCAAYAMGWYRQAPGKERELVAAISIGGSTNYADSVKGRFTISRDNAKNTVYLQLNSLKPEDTAVYYCAAGTWAVSKYLEWLEFYYWGQGTQVTVSS,high polyreactivity
5,QVQHVESGGGIVQAVGSLRLSCAASGSIFYYNAMGWYRQAPGKERELVAAISSGGSTYYADSVKGRFTISRDNAKNTVYLQMNSLKPEDTAVYYCAAKPAFRYLYSRYYPELGGYWGQGTQVTVSS,high polyreactivity
6,QVQLVESVGGLDQAGGSLRLSCAASGRIFRQNAMGWYRQAPGKERELVAAISRSGGSTYYADSVKGRFTISRDNAKNTVYLQMNSLKPEDTAVYYCNRDYQSQRTYPRRYDYCGQGTQVTVSS,low polyreactivity
7,QVQLVESGGGLVQAGGSLRLSCAASVSTFAVYAMGWYRQAPGKERELVAAISSSGDRTFYADSVKGRFTISRDNAKNTVYLQMNSLKPEDTAVYYCNVPYKYRRAYDGGYDYWGQGTQVTVSS,high polyreactivity
8,QVHLVESGGGLVQAGGSLRLSCAASGFTFYRTAMGWYRQPPGKERELVAAITRGASTYYADSVKGRFTISRDNAKNNVYLQMNSLKPEDTAVYYCAADRYYYRGRYYGYTREFDYWGQGTQVTVSS,high polyreactivity
9,QVQLVESGGGFVQAGGSLRLSCAASGFTFWRYTMGWYRQAPGKERELVAAINWSGGRTYYADSVKARFTISRDNAKNTVYLQMNSLTPEDTAVYYCATGYSTSVGGSQGDSWGQGTQVTVSS,high polyreactivity
10,QVQLVESGGGLVQAGGSLRLSCAASGRIFRRYAMGWYRQAPGKERELVAAINGRGTTTYYADSVKGRFTISRDNAKNTVYLQMNSLKPEDTAVYYCAAENTIRYDREYDYWGQGNQVTVSS,high polyreactivity
11,QVQLVESGGGLVQAGGSLRLSCAASGRILWSYPMGWYRQAPGKEREFVATINRSGGNTHYADSVKGRFTISRDNAKNTVYLQMYSLKPEDTAVYYCAALNLVPYGYQGLRYYYWGQGTQVTVSS,high polyreactivity
12,QVQLQESGGGLVLAGGSLRLSCAASGNIFVYSYMGWYRQAPGKEREFVAAIGAGSTTYYADSVSRFTISRDNAKNTVYLQMNSLKPEDTAVYYCNAEITVNDDDYWGQGTQVTVSS,low polyreactivity
13,QVQLVESGGGLVQAGGSLRISCAASGRIFGGYAMGWYRQAPGKERELVAAITSGARTKYADSVKGRFTISRDNAKNTVYLQMNSLKPEDTAVYYCAADGFYDGDYWGQGTQVTVSS,high polyreactivity
14,QVQLVESGGGLYQAGGSLRLSCAASGRIFRYYAMGWYRQAPGKERELVAAINWSGGSTYYADSVKGRFTISRDNAKNTVYLQMNSLKPEDTAVYYCNTRWYVGDDWGQGTQVTVSS,high polyreactivity
15,QVQLVESGGGLVQAGGSLRLSCAASGSIFQWYAMGWYRQAPGKERELVAAITISGTRTYYADSVKGRFTISRDNAKYTVYLQMNSLKPEDTAVYYCAATEGGRFRRIADASMYYWGQGTQVTVSS,high polyreactivity
16,QVQLVESGGGLVQAGGSLRLSCAASGFTFGGNDMGWYRQAPGKERELVAAISWSGGSTYYADSVKGRFTISRDNAKNTVYLLMNSLKPEDTAVYYCAADYYYGKVHFDYWGQGTQVTVSS,low polyreactivity
17,QVQLVESGGGLVQAGGSLRLICADSGFILPRNAMGWYRQAPGKERELVAAIRSSGGTTYYADSVKGRFTISRDIAKNTVYLQMNSLKPEDTAVYYCAAVTTSKFNYWGQGTQVTVSS,low polyreactivity
18,QVQLVESGGGLVQAGGSLRLSCAASGRIFYGYAMGWYRQAPGKERELVAAITRSGGSTYYADSVKGRFTISRDTAKNTVYLQMNSLKPEDTAVYYCNAQWGYRTSFDYGYWGQGTQVTVSS,low polyreactivity
19,QVQLVESGGGLVQAGGSLRLSCAASGGTFISYAMGWYRQAPGKERELVAAISRGGSSTYYADSVKGRFTISRDNAKNTVYLQMNSLKPEDTAVYYCNKAYHRRDSEFGYWGQGTQVTVSS,high polyreactivity
20,QVQLVESGGGLVQAGGSLRLSCAASGITIYNYAMGWYRQAPGKERELVAAITRSGGSTYYADSVKGRFTISRDNAKNTVYLQMNSLKPEDTAVYYCATGKYWRYDYWGQGTQVTVSS,high polyreactivity
21,QYQLVESGRGLVQAGGSLRLSCAASGSTFRSYAMGWYRQAPGKERDLVAAITSSGGRTYYADSVKGRFTISRDNAKNTVYLQMNSLKPEDTAVYYCAARTYSWGDWGQGTQVTVSS,high polyreactivity
